Measurements as given in the supplement of paper PMC10567573.
± gives the standard deviation.

Assay: protein stability index of a GFP-peptide fusion (GPS, HEK-293T) (PSI 1-6); higher = more stable
Conditions: c terminus: a fixed tail appended
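Also: 24-mer peptide tiles fused after GFP, lentivirally expressed, FACS-sorted into six equal bins by GFP/DsRed ratio, decoded by Illumina sequencing, PSI is the read-weighted mean bin number.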

Sequence	protein stability index (treatment: DMSO)	protein stability index (treatment: MLN4924 1 uM, 8 h)
KTTLGWKYEQAFESSQKYKEGKYI [YPEL3]	2.37 ± 0.3	2.63 ± 0.17
KHGSLNRYHNSHPLRERARKLSQG [YJU2B]	3.73 ± 0.19	3.84 ± 0.12
LPCSSYIDSYDPSTGEVYCRVPNS [ALDH8A1]	2.65 ± 0.22	2.88 ± 0.24
SRTCIGSSHSRGPLSWAPCGPIAG	2.76 ± 0.18	2.84 ± 0.36
AIEKAFQLWSNVTPLTFTKVSEGQ [MMP1]	2.45 ± 0.49	2.3 ± 0.33
SSPMVQVDEKGEKVRPSHKRCIVI [LARP4]	2.69 ± 0.16	2.63 ± 0.12
GATLGQTTSEEAVGGATLAQTTSE [HDAC6]	5.37 ± 0.34	5.63 ± 0.31
DLIGLPWVCFIYTIMSLASLLFVV [SLC2A12]	4.15 ± 0.79	3.95 ± 0.71
LDFTHPKARDWFQGHLRRLRSRYS [MYORG]	2.79 ± 0.39	2.97 ± 0.074
HMFTPKLDKMLDPQVWREAATQVF [SLC6A17]	2.11 ± 0.24	2.25 ± 0.47
KRFVAMKVVKSAQHYTETALDEIK [SRPK2]	2.97 ± 0.51	2.92 ± 0.38
VCISTKTQCSEEDQCKINKQIYNL [FEM1B]	3.22 ± 0.19	3.33 ± 0.25
LDSRSTDRVLQWERIDCQGIPPSS [KLHDC2]	4.09 ± 0.29	3.98 ± 0.24
AAAFPTEDSRTSKESMSEADRAQK [EHMT1]	5.59 ± 0.25	5.514 ± 0.053
RYTGTTPSPPPGSHYTSPSENMWN [CARM1]	3.48 ± 0.23	3.57 ± 0.23
LIVGAPIWFRVPYSIISLLLKDKV [PTPN9]	2.59 ± 0.37	2.75 ± 0.85
RWALLSCRGKKPSRIYGQAMAIIN [KLHDC10]	2.32 ± 0.55	2.18 ± 0.32
PPGPDRLPSNLVQYYDDEKKTWKI [KLHL14]	4.87 ± 0.082	4.7 ± 0.33
DQDYLHSLGKARTAQVQKDARIGE [FLOT1]	4.86 ± 0.16	4.74 ± 0.19
LLGLKAFLGLFFIVRFLESNWFVW [FADS1]	2.9 ± 0.47	2.31 ± 0.43
QYRPSDLLCPETYVWVPIEQCLPS [ATE1]	2.28 ± 0.23	2.47 ± 0.28
GGSCRAPSTYGGGLSVSSRFSSGG [KRT16]	2.97 ± 0.27	3.02 ± 0.15
QLREALKILAERVLILETMIGLYE [EMID1]	2.31 ± 0.27	

Sequence	protein stability index (treatment: DMSO)	protein stability index (treatment: MLN4924 1 uM, 8 h)
GRQKYKRRPEVDPLPFPGPFPAGP [ESRRA]	3.87 ± 0.22	4.02 ± 0.26
GYYSEKLEAIQLDGEILFSLLQKV [TBC1D10A]	2.44 ± 0.59	2.53 ± 0.32
LQEQHLSSPQGVQLDIASQSLDQE [BCL2L13]	5.38 ± 0.28	5.56 ± 0.21
FHGWKYMFGLVIPLGVLQAIAMYF [SLC2A12]	2.31 ± 0.46	2.6 ± 0.56
LPIVAIENILSFMSYDEISQLRLV [FBXO28]	2.94 ± 0.5	2.81 ± 0.43
VAAELLNHLLESMPLREGSSFQDL [HES6]	3.11 ± 0.69	3.35 ± 0.79
RIPYTKSQTEAHYSCQSKEILRYM [P2RY14]	2.42 ± 0.32	2.45 ± 0.49
KKKNTNKQEMGTYLRFIVSRMKER [ZMYND11]	2.47 ± 0.16	2.92 ± 0.25
GPSAEAYLLHPAAFHGAPSHLPTR [TBX6]	3.31 ± 0.21	3.42 ± 0.16
IDICHDHFGWYLGWGDCVWLPYLY [DHCR7]	2.55 ± 0.12	3.3 ± 0.27
NDPSGSEEADFLSAETGSPRLTMH [IRX6]	5.16 ± 0.083	5.2 ± 0.057
IPPKSVNPTCMCCQATSSTACHIQ [FAM219A]	3.7 ± 0.17	3.82 ± 0.26
MSIHIVALGNEGDTFHQDNQPSGL [RHOBTB3]	2.51 ± 0.25	2.52 ± 0.4
FSSITDSTMSLNIITVTLNMEKYN [DVL3]	2.93 ± 0.63	2.75 ± 0.57
LVLRRQLKNKCCPPPCKFGEGKLS [C22orf31]	2.21 ± 0.31	2.52 ± 0.34
GPLPVKRGPPPRSGGPPPKRSAPS [RBMX]	4.49 ± 0.39	4.85 ± 0.25
DLSSLRAKYPHDVVNHLSCDEARN [SPACA9]	4.47 ± 0.21	4.33 ± 0.47
LCEPDPVHFSEAIEKFIREPSLKA [ALG2]	3.81 ± 0.19	3.91 ± 0.19
ETIKCVVVGDNAVGKTRLICARAC [RHOBTB1]	2.39 ± 0.2	2.44 ± 0.21
EPLQALLERASATLQDLVFDECGI [PRAME]	2.25 ± 0.2	2.67 ± 0.18
WERKEGGGGISCVLQDGCVFEKAG [CPOX]	3.82 ± 0.12	3.84 ± 0.24
AFPGASHESSGNPPLRVIVKDALF [RHOBTB3]	2.96 ± 0.28	3.25 ± 0.41
